Article PMC10321299

Molecular target: SpyCatcher-tagged ferritin
Test: SDS-PAGE of the covalent conjugate; purified SC-FN and rePO-ST mixed in vitro overnight (12 hours) at 4 °C in molar ratios 1:8 to 1:28; isopeptide bond between SpyTag and SpyCatcher; new band on SDS-PAGE

“SpyTag-tagged rePO (recombinant PcrV-OprI with SpyTag at the C-terminus) (from UniProt G3XD49 28-294; P11221 25-83)” was tested, and the proportion of conjugated ferritin was 70%.
